In this assay the target is T1, α1-proteinase inhibitor (human, UniProt P01009 25-418).
T1 construct: also called α1-PI; α1PI
As to the kind of experiment: ELISA of HNE-α1-PI complexes in human plasma. A general note: ELISA stands for enzyme-linked immunosorbent assay.

T1 sequence (P01009 25-418 limits assumed): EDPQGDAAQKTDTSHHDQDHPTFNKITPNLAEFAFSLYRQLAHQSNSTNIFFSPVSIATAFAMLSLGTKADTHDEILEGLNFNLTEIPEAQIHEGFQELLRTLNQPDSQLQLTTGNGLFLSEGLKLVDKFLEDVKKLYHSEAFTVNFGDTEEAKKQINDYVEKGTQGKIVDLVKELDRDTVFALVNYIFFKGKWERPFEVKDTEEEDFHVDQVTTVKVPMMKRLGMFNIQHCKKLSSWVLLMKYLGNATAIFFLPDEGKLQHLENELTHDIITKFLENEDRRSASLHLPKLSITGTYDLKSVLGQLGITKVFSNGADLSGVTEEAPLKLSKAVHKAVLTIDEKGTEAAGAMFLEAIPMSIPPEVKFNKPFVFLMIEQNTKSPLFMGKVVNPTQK

B1: Human neutrophil elastase (enzyme, UniProt P08246 30-247, looked up)
chain: IVGGRRARPHAWPFMVSLQLRGGHFCGATLIAPNFVMSAAHCVANVNVRAVRVVLGAHNLSRREPTRQVFAVQRIFENGYDPVNLLNDIVILQLNGSATINANVQVAQLPAQGRRLGNGVQCLAMGWGLLGRNRGIASVLQELNVTVVTSLCRRSNVCTLVRGRQAGVCFGDSGSPLVCNGLIHGIASFVRGGCASGLYPDAFAPVAQFVNWIDSIIQ
notes: Tested free (purified, in supernatants or in plasma) and as an HNE-DNA complex on NETs; also called HNE; leukocyte elastase
Take B1: the binding result is recorded as “binds”.

Values taken from patent US20240288446A1 (H PITAUX UNIVERSITAIRES DE STRASBOURG, published 2024).
